Assay results from article doi:10.1101/2024.03.07.583919 (bioRxiv, 2024).
Residue numbers refer to the chain shown, from its start. Names may count otherwise.

Molecular target: the molecule itself
Assay: SEC

B1: wild-type human GCAP1-E6S (Guanylate Cyclase Activating Protein 1), myristoylated (natural protein)
chain: MGNVMSGKSVEELSSTECHQWYKKFMTECPSGQLTLYEFRQFFGLKNLSPSASQYVEQMFETFDFNKDGYIDFMEYVAALSLVLKGKVEQKLRWYFKLYDVDGNGCIDRDELLTIIQAIRAINPCSDTTMTAEEFTDTVFSKIDVNGDGELSLEEFIEGVQKDQMLLDTLTRSLDLTRIVRRLQNGEQDEEGADEAAEAAG
modifications: myristoylated at the N-terminal (by S. cerevisiae N-myristoyltransferase)
B1: binds.

B2: E111V-GCAP1 (human GCAP1-E6S with the cone-rod dystrophy substitution E111V), myristoylated (natural protein)
chain: B1 chain with E111V
modifications: myristoylated at the N-terminal (by S. cerevisiae N-myristoyltransferase)
B2: binds.
